How the values were obtained:
Conditions in all cases: Homo sapiens
[1] = substrate: Cc1ccc(OCCNc2nc(Nc3cc(C)[nH]n3)cc(C)c2C#N)cn1
Description: Activity at LYN (unknown origin)

[2] = substrate: Cc1ccc(OCCNc2nc(Nc3cc(C)[nH]n3)cc(C)c2C#N)cn1; remark: listed apart in the source
Description: Activity at Aurora 1 kinase (unknown origin)

[3] = substrate: Cc1ccc(OCCNc2nc(Nc3cc(C)[nH]n3)cc(C)c2C#N)cn1; remark: listed apart in the source
Description: Activity at Aurora 2 kinase (unknown origin)

B1: Tyrosine-protein kinase Lyn (Homo sapiens), P07948 (protein)
chain: MGCIKSKGKDSLSDDGVDLKTQPVRNTERTIYVRDPTSNKQQRPVPESQLLPGQRFQTKDPEEQGDIVVALYPYDGIHPDDLSFKKGEKMKVLEEHGEWWKAKSLLTKKEGFIPSNYVAKLNTLETEEWFFKDITRKDAERQLLAPGNSAGAFLIRESETLKGSFSLSVRDFDPVHGDVIKHYKIRSLDNGGYYISPRITFPCISDMIKHYQKQADGLCRRLEKACISPKPQKPWDKDAWEIPRESIKLVKRLGAGQFGEVWMGYYNNSTKVAVKTLKPGTMSVQAFLEEANLMKTLQHDKLVRLYAVVTREEPIYIITEYMAKGSLLDFLKSDEGGKVLLPKLIDFSAQIAEGMAYIERKNYIHRDLRAANVLVSESLMCKIADFGLARVIEDNEYTAREGAKFPIKWTAPEAINFGCFTIKSDVWSFGILLYEIVTYGKIPYPGRTNADVMTALSQGYRMPRVENCPDELYDIMKMCWKEKAEERPTFDYLQSVLDDFYTATEGQYQQQP
B1 showed a Km [1] of 1000 µM.

B2: Aurora kinase B (Homo sapiens), Q96GD4 (protein)
chain: MAQKENSYPWPYGRQTAPSGLSTLPQRVLRKEPVTPSALVLMSRSNVQPTAAPGQKVMENSSGTPDILTRHFTIDDFEIGRPLGKGKFGNVYLAREKKSHFIVALKVLFKSQIEKEGVEHQLRREIEIQAHLHHPNILRLYNYFYDRRRIYLILEYAPRGELYKELQKSCTFDEQRTATIMEELADALMYCHGKKVIHRDIKPENLLLGLKGELKIADFGWSVHAPSLRRKTMCGTLDYLPPEMIEGRMHNEKVDLWCIGVLCYELLVGNPPFESASHNETYRRIVKVDLKFPASVPMGAQDLISKLLRHNPSERLPLAQVSAHPWVRANSRRVLPPSALQSVA
B2 gave a Km [2] of 30 µM.

B3: Aurora kinase A (Homo sapiens), O14965 (protein)
chain: MDRSKENCISGPVKATAPVGGPKRVLVTQQFPCQNPLPVNSGQAQRVLCPSNSSQRIPLQAQKLVSSHKPVQNQKQKQLQATSVPHPVSRPLNNTQKSKQPLPSAPENNPEEELASKQKNEESKKRQWALEDFEIGRPLGKGKFGNVYLAREKQSKFILALKVLFKAQLEKAGVEHQLRREVEIQSHLRHPNILRLYGYFHDATRVYLILEYAPLGTVYRELQKLSKFDEQRTATYITELANALSYCHSKRVIHRDIKPENLLLGSAGELKIADFGWSVHAPSSRRTTLCGTLDYLPPEMIEGRMHDEKVDLWSLGVLCYEFLVGKPPFEANTYQETYKRISRVEFTFPDFVTEGARDLISRLLKHNPSQRPMLREVLEHPWITANSSKPSNCQNKESASKQS
With B3 the Km [3] was 28 µM.

Source: ChEMBL document CHEMBL3871290, “3-Cyano-6-(5-methyl-3-pyrazoloamino) pyridines (Part 2): A dual inhibitor of Aurora kinase and tubulin polymerization” (Bioorg Med Chem Lett, 2016)
